Experimental data published in PMC9332313, “Folding and Binding Mechanisms of the SH2 Domain from Crkl” (Biomolecules, 2022).

What was measured:
[1] = molecular target: dansylated Pax_(112–123) peptide (Dans-GEEEHV-pY-SFPNK); experiment: stopped-flow fluorescence displacement kinetics (FRET); complex of 2 µM H60A mutant and 20 µM dansyl-Pax112-123 mixed with excess non-dansylated Pax112-123 (40 μM); 283 K; pH 6.8
[2] = molecular target: dansylated Pax_(112–123) peptide (Dans-GEEEHV-pY-SFPNK); experiment: stopped-flow fluorescence displacement kinetics (FRET); complex of 2 µM H60A mutant and 20 µM dansyl-Pax112-123 mixed with excess non-dansylated Pax112-123 (40 μM); 283 K; pH 7.5
[3] = molecular target: dansylated Pax_(112–123) peptide (Dans-GEEEHV-pY-SFPNK); experiment: stopped-flow fluorescence displacement kinetics (FRET); complex of 2 µM H60A mutant and 20 µM dansyl-Pax112-123 mixed with excess non-dansylated Pax112-123 (40 μM); 283 K; pH 5.5
His60 = His60 (UniProt position 60, NSRVSHYIINS); experiment: kinetics (stopped-flow fluorescence binding and displacement); details: 283 K; 0.5 M NaCl plus 50 mM buffer; 50 mM sodium-acetate pH 5.0 and 5.5; 50 mM BisTRIS pH 6.0 and 6.8; 50 mM sodium-HEPES pH 7.5; 50 mM TrisHCl pH 8.0, 8.5 and 9.0; Binding reaction with dansyl-Pax112-123 phosphopeptide. The pKa comes from both association and dissociation rate constants, so no free or bound state is specified.

Substance | koff [1] | koff [2] | koff [3] | pKa (His60)
SH2 domain of Crkl protein (residues 1-111), H60A variant (from UniProt P46109 1-111) (domain or fragment) | 152 s⁻¹ | 237 s⁻¹ | 212 s⁻¹ | –
Crk-like protein (Crkl) SH2 domain (Homo sapiens (inferred; not stated in the article)) | – | – | – | 7.1 ± 0.2
